Measured values taken from patent publication US20110263454A1, “Methods of Identifying Functional Characteristics of Promoters, Transcription Modifying Proteins and Transcription Modulating Agents” (Salk Institute for Biological Studies, priority 2008, published 2011).

B1: RORb: RAR-related Orphan Receptor β (NR1F2), cDNA driver (protein, UniProt Q92753 1-470, looked up)
Nuclear receptor ROR-beta: MCENQLKTKADATAQIEVIPCKICGDKSSGIHYGVITCEGCKGFFRRSQQNNASYSCPRQRNCLIDRTNRNRCQHCRLQKCLALGMSRDAVKFGRMSKKQRDSLYAEVQKHQQRLQEQRQQQSGEAEALARVYSSSISNGLSNLNNETSGTYANGHVIDLPKSEGYYNVDSGQPSPDQSGLDMTGIKQIKQEPIYDLTSVPNLFTYSSFNNGQLAPGITMTEIDRIAQNIIKSHLETCQYTMEELHQLAWQTHTYEEIKAYQSKSREALWQQCAIQITHAIQYVVEFAKRITGFMELCQNDQILLLKSGCLEVVLVRMCRAFNPLNNTVLFEGKYGGMQMFKALGSDDLVNEAFDFAKNLCSLQLTEEEIALFSSAVLISPDRAWLIEPRKVQKLQEKIYFALQHVIQKNHLDDETLAKLIAKIPTITAVCNLHGEKLQVFKQSHPEIVNTLFPPLYKELFNPDCATGCK
B2: RXRb: Retinoic X Receptor β (NR2B2), cDNA driver (protein, UniProt P28702 1-533, looked up)
Retinoic acid receptor …: MSWAARPPFLPQRHAAGQCGPVGVRKEMHCGVASRWRRRRPWLDPAAAAAAAVAGGEQQTPEPEPGEAGRDGMGDSGRDSRSPDSSSPNPLPQGVPPPSPPGPPLPPSTAPSLGGSGAPPPPPMPPPPLGSPFPVISSSMGSPGLPPPAPPGFSGPVSSPQINSTVSLPGGGSGPPEDVKPPVLGVRGLHCPPPPGGPGAGKRLCAICGDRSSGKHYGVYSCEGCKGFFKRTIRKDLTYSCRDNKDCTVDKRQRNRCQYCRYQKCLATGMKREAVQEERQRGKDKDGDGEGAGGAPEEMPVDRILEAELAVEQKSDQGVEGPGGTGGSGSSPNDPVTNICQAADKQLFTLVEWAKRIPHFSSLPLDDQVILLRAGWNELLIASFSHRSIDVRDGILLATGLHVHRNSAHSAGVGAIFDRVLTELVSKMRDMRMDKTELGCLRAIILFNPDAKGLSNPSEVEVLREKVYASLETYCKQKYPEQQGRFAKLLLRLPALRSIGLKCLEHLFFFKLIGDTPIDTFLMEMLEAPHQLA
B3: CAR: Constitutive Androstane Receptor (NR1I3), cDNA driver (protein, UniProt Q14994 1-352, looked up)
Nuclear receptor subfamily 1 …: MASREDELRNCVVCGDQATGYHFNALTCEGCKGFFRRTVSKSIGPTCPFAGSCEVSKTQRRHCPACRLQKCLDAGMRKDMILSAEALALRRAKQAQRRAQQTPVQLSKEQEELIRTLLGAHTRHMGTMFEQFVQFRPPAHLFIHHQPLPTLAPVLPLVTHFADINTFMVLQVIKFTKDLPVFRSLPIEDQISLLKGAAVEICHIVLNTTFCLQTQNFLCGPLRYTIEDGARVSPTVGFQVEFLELLFHFHGTLRKLQLQEPEYVLLAAMALFSPDRPGVTQRDEIDQLQEEMALTLQSYIKGQQRRPRDRFLYAKLLGLLAELRSINEAYGYQIQHIQGLSAMMPLLQEICS
B4: RXRg: Retinoic X Receptor γ (NR2B3), cDNA driver (protein, UniProt P48443 1-463, looked up)
Retinoic acid receptor …: MYGNYSHFMKFPAGYGGSPGHTGSTSMSPSAALSTGKPMDSHPSYTDTPVSAPRTLSAVGTPLNALGSPYRVITSAMGPPSGALAAPPGINLVAPPSSQLNVVNSVSSSEDIKPLPGLPGIGNMNYPSTSPGSLVKHICAICGDRSSGKHYGVYSCEGCKGFFKRTIRKDLIYTCRDNKDCLIDKRQRNRCQYCRYQKCLVMGMKREAVQEERQRSRERAESEAECATSGHEDMPVERILEAELAVEPKTESYGDMNMENSTNDPVTNICHAADKQLFTLVEWAKRIPHFSDLTLEDQVILLRAGWNELLIASFSHRSVSVQDGILLATGLHVHRSSAHSAGVGSIFDRVLTELVSKMKDMQMDKSELGCLRAIVLFNPDAKGLSNPSEVETLREKVYATLEAYTKQKYPEQPGRFAKLLLRLPALRSIGLKCLEHLFFFKLIGDTPIDTFLMEMLETPLQIT
B5: HNF4g: Hepatocyte Nuclear Factor γ (NR2A2), cDNA driver (protein, UniProt Q14541 1-408, looked up)
Hepatocyte nuclear factor …: MNTTDNGVNCLCAICGDRATGKHYGASSCDGCKGFFRRSIRKSHVYSCRFSRQCVVDKDKRNQCRYCRLRKCFRAGMKKEAVQNERDRISTRRSTFDGSNIPSINTLAQAEVRSRQISVSSPGSSTDINVKKIASIGDVCESMKQQLLVLVEWAKYIPAFCELPLDDQVALLRAHAGEHLLLGATKRSMMYKDILLLGNNYVIHRNSCEVEISRVANRVLDELVRPFQEIQIDDNEYACLKAIVFFDPDAKGLSDPVKIKNMRFQVQIGLEDYINDRQYDSRGRFGELLLLLPTLQSITWQMIEQIQFVKLFGMVKIDNLLQEMLLGGASNDGSHLHHPMHPHLSQDPLTGQTILLGPMSTLVHADQISTPETPLPSPPQGSGQEQYKIAANQASVISHQHLSKQKQL

What follows are molecules tested on RevErba promoter (assay: NHR-promoter luciferase screen, RevErba (RVRa) promoter). Conditions: RVRa promoter; HR component without or with ligand.
Assay type: cell-based
Design: key to mRevErba promoter reporter activity / Normalized Luc. act., normalized to control: luciferase activity normalized to lacZ and to control (no NHR/ligand)
Procedure, shortened: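 CV-1 cells co-transfected with NHR (pcDNA3.1, C-terminal V5H6 tag) as homodimer or RXR heterodimer, RevErbα promoter–luciferase reporter and LacZ transfection control; ligand added where applicable. Luciferase normalized to LacZ and to no-NHR/no-ligand control.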

Row | Molecule | Luc. act., normalized to lacZ | Normalized Luc. act., normalized to control
1 | B1 | 29.93 | 1.1
2 | B2 | 17.38 | 0.6
3 | B3 | 40.00 | 1.4
4 | B4 | 24.64 | 0.9
5 | B5 | 28.15 | 1.0

Same assay, conditions: RVRa promoter; given only where activity is below control

Row | Molecule | negative reciprocal of normalized Luc. act. (fold repression; Table 33)
6 | B2 | −1.609
7 | B4 | −1.135

Same assay, conditions: RVRa promoter; log10 of activity normalized to control

Row | Molecule | normalized Luc. act. on a logarithmic scale (column without head, Table 33)
8 | B1 | 0.03
9 | B2 | −0.21
10 | B3 | 0.16
11 | B4 | −0.05
12 | B5 | 0.00

Same assay, conditions: transcription factor +/- ligand; control = 1.00

Row | Molecule | mRevErba promoter reporter activity
13 | B1 | 1.07
14 | B2 | 0.62
15 | B3 | 1.43
16 | B4 | 0.88
17 | B5 | 1.01

Each molecule was assayed on mADRP promoter (assay: NHR-promoter luciferase screen, mADRP promoter). Conditions: ADRP promoter; HR/ligand component.
Assay type: cell-based, mouse
Procedure, shortened: (§1)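 CV-1 cells were co-transfected with 50 ng NHR (homodimer or NHR/RXR heterodimer), 100 ng promoter-luciferase construct and 50 ng LacZ. Luciferase was normalized to LacZ and to a no-NHR/no-ligand control.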

Row | Molecule | Luc. act., normalized to lacZ | Normalized Luc. act., normalized to control
18 | B1 | 685.3 | 1.4
19 | B2 | 676.1 | 1.4
20 | B3 | 623.0 | 1.3
21 | B4 | 665.8 | 1.3
22 | B5 | 511.7 | 1.0

Same assay, conditions: transcription factor +/- ligand; control = 1.00

Row | Molecule | mADRP promoter reporter activity
23 | B1 | 1.38
24 | B2 | 1.36
25 | B3 | 1.25
26 | B4 | 1.34
27 | B5 | 1.03

The molecules below were run on mDio2 promoter (assay: NHR-promoter luciferase screen, mDio2 promoter). Conditions: Dio2; HR component without or with its ligand.
Assay type: cell-based, mouse
Procedure, shortened: as §1

Row | Molecule | Luc. act., normalized to lacZ | Normalized Luc. act., normalized to control
28 | B1 | 23.1 | 1.5
29 | B2 | 22.8 | 1.5
30 | B3 | 18.4 | 1.2
31 | B4 | 27.8 | 1.8
32 | B5 | 18.0 | 1.1

Same assay, conditions: transcription factor +/- ligand; control = 1.00

Row | Molecule | mDio2 promoter reporter activity
33 | B1 | 1.47
34 | B2 | 1.45
35 | B3 | 1.17
36 | B4 | 1.77
37 | B5 | 1.14

Each molecule was assayed on hMDR1 promoter (assay: NHR-promoter luciferase screen, hMDR1 promoter). Conditions: MDR1 promoter; HR/ligand component.
Assay type: cell-based, human
Procedure, shortened: as §1

Row | Molecule | Luc. act., normalized to lacZ | Normalized Luc. act., normalized to control
38 | B1 | 0.2 | 0.6
39 | B2 | 0.1 | 0.3
40 | B3 | 0.2 | 0.7
41 | B4 | 0.2 | 0.7
42 | B5 | 0.2 | 0.8

Same assay, conditions: transcription factor +/- ligand; control = 1.00

Row | Molecule | hMDR1 promoter reporter activity
43 | B1 | 0.58
44 | B2 | 0.28
45 | B3 | 0.68
46 | B4 | 0.65
47 | B5 | 0.75

What follows are molecules tested on mPer1 promoter (assay: NHR-promoter luciferase screen, mPer1 promoter). Conditions: Per1 promoter reporter; co-transfected HR, with or without its ligand.
Assay type: cell-based, mouse
Procedure, shortened: as §1

Row | Molecule | Luc. act., normalized to lacZ
48 | B1 | 112.0
49 | B2 | 50.5
50 | B3 | 86.6
51 | B4 | 94.5
52 | B5 | 116.1

Same assay, conditions: Per1 promoter reporter; co-transfected HR, with or without its ligand; relative to control

Row | Molecule | Normalized Luc. act., normalized to control
53 | B1 | 0.8
54 | B2 | 0.4
55 | B3 | 0.6
56 | B4 | 0.7
57 | B5 | 0.8

Same assay, conditions: mPer1 promoter-luciferase, CV-1 cells, NHR +/- ligand, control = 1.00

Row | Molecule | luciferase activity normalized to lacZ activity and to a control, mPer1
58 | B1 | 0.78
59 | B2 | 0.35
60 | B3 | 0.60
61 | B4 | 0.66
62 | B5 | 0.81
